Experimental data as given in paper PMC6465399, “S-nitrosylation of the Peroxiredoxin-2 promotes S-nitrosoglutathione-mediated lung cancer cells apoptosis via AMPK-SIRT1 pathway” (Cell Death & Disease, 2019).

Biological target: the molecule itself
Assay: non-reducing SDS-PAGE and immunoblot (dimer/monomer detection); A549 cells untreated or treated with GSNO for 24 h; 100 mM N-ethyl maleimide for 20 min at 37 °C to preserve the Prdx2 redox state; nonreducing lysis buffer (100 mM Tris-HCl pH 6.8, 10% glycerol, 2% SDS) with 100 mM NEM; immunoblot for Prdx2

B1: Peroxiredoxin-2 (enzyme, human (endogenous in A549), UniProt P32119 1-198, looked up)
chain: MASGNARIGKPAPDFKATAVVDGAFKEVKLSDYKGKYVVLFFYPLDFTFVCPTEIIAFSNRAEDFRKLGCEVLGVSVDSQFTHLAWINTPRKEGGLGPLNIPLLADVTRRLSEDYGVLKTDEGIAYRGLFIIDGKGVLRQITVNDLPVGRSVDEALRLVQAFQYTDEHGEVCPAGWKPGSDTIKPNVDDSKEYFSKHN
notes: Peroxiredoxin-2 (Prdx2), endogenous in human A549 lung cancer cells; three cysteines Cys51, Cys70, Cys172; The dimer seen on the non-reducing gel is the disulfide-linked (Cys51-Cys172) form; also called Prdx2; source: endogenous, A549 cells, in lysate
stoichiometry N: 2
